Measurements from patent publication US20200247855A1, “THERAPY AND DIAGNOSTICS” (OXFORD UNIVERSITY INNOVATION LIMITED, priority 2017, published 2020).

How the values were obtained:
[1] = molecular target: T1, CCL8_HUMAN (human), P80075; experiment: FACS, inhibition of CCL8-647 binding to THP-1 cells; conditions: modification not given
T1 chain: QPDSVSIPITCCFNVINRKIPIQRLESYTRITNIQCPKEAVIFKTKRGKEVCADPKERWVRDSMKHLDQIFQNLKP

[2] = molecular target: T1, CCL8_HUMAN (human), P80075; experiment: fluorescence polarisation; Kd1, two-site fit; conditions: modification not given
[3] = molecular target: T1, CCL8_HUMAN (human), P80075; experiment: fluorescence polarisation; Kd2, two-site fit; conditions: modification not given
[4] = molecular target: T2, CCL5_HUMAN (human), P13501; experiment: BLI; conditions: remark: other sources report otherwise
T2 chain: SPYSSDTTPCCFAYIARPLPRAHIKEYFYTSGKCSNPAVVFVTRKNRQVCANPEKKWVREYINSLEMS

B1: P672_PEP (peptide BK1.1) (peptide)
chain: EDEDYEDFFKPVTAYF
- IC50 [1]: 4.9 µM

B2: P672_PEP-FITC (peptide)
chain: EDEDYEDFFKPVTAYF
- Kd [2]: 11.9 nM
- Kd [3]: 252 nM

B3: P974_AMBCA, A0A023FDY8 22-118 (protein)
chain: ENTQQEEQDYDYGTDTCPFPVLANKTNKAKFVGCHQKCNGGDQKLTDGTACYVVERKVWDRMTPMLWYECPLGECKNGVCEDLRKKEDCRKGNGEEK
- Kd [4]: 160 nM
